Measurements from patent publication US20240299576A1, “TARGETING […] MOLECULES AND USES THEREOF” (priority 2021, published 2024).
Read-outs that look alike come from different tables or passages of the source.

Experiments:
PC3-hPDL1-hTROP2 cells = assay: cells; type: cell-based, human; settings: 5 days exposure, read-out: PC3-hPDL1-hTROP2 cell IC50
Method: (§1) The in vitro anti-tumor activity was determined by CellTiter-Glo® Luminescent Cell Viability Assay (Promega) according to the manufacturer's instructions. […] Untreated cells served as control. ADCs, antibodies, or payloads in 100 μL medium were added in duplicate at various concentrations with a 2-fold dilution series starting with concentrations of 1 uM, respectively. Cells were exposed to test articles for 5 days. Absorbance was measured at 450 nm by a microplate reader. The cell survival rate (%) was calculated using the following formula: sample/control×100%.

CathepsinB = CathepsinB (Homo sapiens, UniProt P07858); assay: Digestion of the drug-linkers by CathepsinB; settings: 125 nM enzyme, 62.5 μM drug-linker, pH 5.5, 37° C., 3 hours
Method: To simulate the release of drug under physiological conditions, the drug-linkers were subjected to cleavage by CathepsinB, after which an elimination reaction occurred and unmodified drug was released.
Lyophilized CathepsinB enzyme powder was dissolved in 130 μL of pure water, and divided into 13 tubes of 10 μL each. […] Activation buffer (20 mM sodium acetate, 30 mM DTT, 15 mM EDTA, pH 5.5) was then added to a tube of enzyme to activate the enzyme for 1 hour at room temperature.

[1] = system: T1, uPA substrate peptide SEQ ID NO: 50
T1 sequence: LSGRSDNH

[2] = system: T2, uPA substrate peptide SEQ ID NO: 51
T2 sequence: SGRSA

[3] = system: T3, uPA substrate peptide SEQ ID NO: 52
T3 sequence: LGGSGRSANAILE

[4] = system: T4, uPA substrate peptide SEQ ID NO: 53
T4 sequence: LGGSGRNAQVRLE

[5] = system: T5, uPA substrate peptide SEQ ID NO: 54
T5 sequence: GSGRNAQV

[6] = Stability of SN-38 (lactone / lactone ring opening vs pH); type: physicochemical
Method: A hydrochloric acid solution with a pH of 4 and a sodium hydroxide solution with a pH of 10 were prepared respectively. 5 mg of SN-38 was dissolved in 5 mL of acetonitrile. The stability of SN-38 in a solution of changing pH (pH=10 to pH=4) was measured by shaking SN-38 at room temperature under pH=10 for 10 min, then adjusting the pH back to 4 and shake at room temperature for 10 min before sampling. SN-38 was then incubated at room temperature overnight (16 h) on a shaker and assayed afterwards.

HCT15-hPDL1 cells = assay: cells; type: cell-based, human; settings: 5 days exposure, read-out: HCT15-hPDL1 cell IC50
Method: The cell line was named as HCT15-hPDL1.
as §1

HCT15-hPDL1-hTROP2 cells = assay: In vitro cytotoxicity, HCT15-hPDL1-hTROP2 cells; type: cell-based, human
Method: The cell line was named as HCT15-hPDL1-hTROP2.
as §1

[7] = alkaline conditions 10 minutes, then acidic conditions (pH 10→4) before testing
[8] = pH 10→4, after incubation overnight (16 h)

Sequence of Tissue-type Plasminogen Activator (tPA) (P00750 36-562): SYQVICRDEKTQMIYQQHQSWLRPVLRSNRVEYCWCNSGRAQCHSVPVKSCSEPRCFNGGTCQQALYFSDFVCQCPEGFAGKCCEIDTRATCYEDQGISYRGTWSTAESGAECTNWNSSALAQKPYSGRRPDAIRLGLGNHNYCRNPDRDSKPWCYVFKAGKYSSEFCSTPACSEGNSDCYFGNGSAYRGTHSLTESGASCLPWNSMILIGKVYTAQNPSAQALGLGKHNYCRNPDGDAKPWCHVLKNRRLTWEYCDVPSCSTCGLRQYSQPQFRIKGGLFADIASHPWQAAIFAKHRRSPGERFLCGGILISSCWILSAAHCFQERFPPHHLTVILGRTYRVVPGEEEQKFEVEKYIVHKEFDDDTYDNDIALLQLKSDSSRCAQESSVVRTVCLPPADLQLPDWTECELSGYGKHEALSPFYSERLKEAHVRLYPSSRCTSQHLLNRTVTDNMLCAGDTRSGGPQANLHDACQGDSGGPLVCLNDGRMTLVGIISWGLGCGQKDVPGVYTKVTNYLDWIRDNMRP

Glycine3-amido-PEG8-VC-PAB-DMAE-phenol linked SN38 [Compound of Formula (1)]
IC50 (PC3-hPDL1-hTROP2 cells): > 250 nM
Product released on CathepsinB digestion (CathepsinB): SN38

Urokinase-type Plasminogen Activator (uPA)
Fluorescence Intensity, Fold of Increase, uPA cleavage (FRET) [1]: 4.9 fold
Fluorescence Intensity, Time to Reach Plateau (h), uPA cleavage (FRET) [1]: 1.7 h
Fluorescence Intensity, Fold of Increase, uPA cleavage (FRET) [2]: 9.6 fold
Fluorescence Intensity, Time to Reach Plateau (h), uPA cleavage (FRET) [2]: 1.8 h
Fluorescence Intensity, Fold of Increase, uPA cleavage (FRET) [3]: 3.1 fold
Fluorescence Intensity, Time to Reach Plateau (h), uPA cleavage (FRET) [3]: 1.4 h
Fluorescence Intensity, Fold of Increase, uPA cleavage (FRET) [4]: 3 fold
Fluorescence Intensity, Time to Reach Plateau (h), uPA cleavage (FRET) [4]: 1.6 h
Fluorescence Intensity, Fold of Increase, uPA cleavage (FRET) [5]: 4.7 fold
Fluorescence Intensity, Time to Reach Plateau (h), uPA cleavage (FRET) [5]: 1.4 h

CCc1c2c(nc3ccc(O)cc13)-c1cc3c(c(=O)n1C2)COC(=O)[C@]3(O)CC [SN38, 7-ethyl-10-hydroxy-20(S)-camptothecin]
existing as lactone ([6]; acidic conditions (pH 4)): 94%
lactone ring-opening products [6, 7]: 42%
present in the form of lactone [6, 7]: 56%
lactone ring-opened form ([6]; alkaline conditions (pH 10)): 92%
in the form of lactone [6, 8]: 86%
lactone ring-opening products [6, 8]: 13%
IC50 (HCT15-hPDL1 cells; Homo sapiens, 120 h): 11.2 nM
IC50 (PC3-hPDL1-hTROP2 cells; Homo sapiens, 120 h): 8.69 nM
Maximum Inhibitory Rate (HCT15-hPDL1-hTROP2 cells; HCT15-hPDL1-hTROP2 cells): >99.9%
IC50 (HCT15-hPDL1-hTROP2 cells; Homo sapiens, 120 h, 5 days exposure, read-out: HCT15-hPDL1-hTROP2 cell IC50): 9.57 nM

Tissue-type Plasminogen Activator (tPA)
Fluorescence Intensity, Fold of Increase, tPA digestion at 2.25 × 10^-2 mg/mL (FRET) [1]: 1.1 fold
Fluorescence Intensity, Fold of Increase, tPA digestion at 7.5 × 10^-3 mg/mL (FRET) [1]: 0.63 fold
Fluorescence Intensity, Fold of Increase, tPA digestion at 2.25 × 10^-2 mg/mL (FRET) [2]: 5.4 fold
Fluorescence Intensity, Fold of Increase, tPA digestion at 7.5 × 10^-3 mg/mL (FRET) [2]: 2.1 fold
Fluorescence Intensity, Fold of Increase, tPA digestion at 2.25 × 10^-2 mg/mL (FRET) [3]: 2.1 fold
Fluorescence Intensity, Fold of Increase, tPA digestion at 7.5 × 10^-3 mg/mL (FRET) [3]: 1.2 fold
Fluorescence Intensity, Fold of Increase, tPA digestion at 2.25 × 10^-2 mg/mL (FRET) [4]: 1.3 fold
Fluorescence Intensity, Fold of Increase, tPA digestion at 7.5 × 10^-3 mg/mL (FRET) [4]: 0.73 fold
Fluorescence Intensity, Fold of Increase, tPA digestion at 2.25 × 10^-2 mg/mL (FRET) [5]: 2.6 fold
Fluorescence Intensity, Fold of Increase, tPA digestion at 7.5 × 10^-3 mg/mL (FRET) [5]: 0.91 fold

Glycine3-amido-PEG8-VC-PAB-DMAE-α-hydroxy lactone linked SN38 [Compound of Formula (2)]
IC50 (HCT15-hPDL1 cells): 38.1 nM
IC50 (PC3-hPDL1-hTROP2 cells): 53.1 nM
CathepsinB digestion (CathepsinB): effectively digested
Product released on CathepsinB digestion (CathepsinB): SN38 derivatives
